Experimental data taken from patent US20250313625A1 (ELPISCIENCE SUZHOU BIOPHARMA, published 2025).
Where two headings read alike, the source gives them in different places.

Assays:
[1] = target: T1, human LAG3 (form used in Octet, Biacore and HDX-MS not given) (human, UniProt P18627 23-450, limits assumed); assay: BLI (Octet)
T1 sequence (looked up): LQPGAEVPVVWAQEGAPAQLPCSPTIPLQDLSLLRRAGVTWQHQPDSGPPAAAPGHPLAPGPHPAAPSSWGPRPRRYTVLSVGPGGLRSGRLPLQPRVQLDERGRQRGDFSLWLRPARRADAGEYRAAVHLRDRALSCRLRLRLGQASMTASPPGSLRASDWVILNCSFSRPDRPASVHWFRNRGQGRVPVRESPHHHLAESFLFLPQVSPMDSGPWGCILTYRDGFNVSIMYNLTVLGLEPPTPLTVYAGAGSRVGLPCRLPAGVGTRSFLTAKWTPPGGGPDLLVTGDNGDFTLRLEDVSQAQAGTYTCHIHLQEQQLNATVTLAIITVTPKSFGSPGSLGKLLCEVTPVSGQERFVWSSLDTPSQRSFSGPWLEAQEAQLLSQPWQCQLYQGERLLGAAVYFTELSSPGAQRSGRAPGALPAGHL

[2] = target: T1, human LAG3 (form used in Octet, Biacore …); assay: SPR (Biacore), 1:1 fit
Protocol: The association and dissociation curves were fit with 1:1 binding model, and the Ka/Kd/KD values for each antibody were calculated.

[3] = target: T2, human LAG3, full length, stably expressed on cells (human, UniProt P18627 23-525); assay: FACS on 293F cells stably expressing human LAG3
T2 construct: whole, on cells; also called CHOK1-human LAG3
T2 sequence (looked up): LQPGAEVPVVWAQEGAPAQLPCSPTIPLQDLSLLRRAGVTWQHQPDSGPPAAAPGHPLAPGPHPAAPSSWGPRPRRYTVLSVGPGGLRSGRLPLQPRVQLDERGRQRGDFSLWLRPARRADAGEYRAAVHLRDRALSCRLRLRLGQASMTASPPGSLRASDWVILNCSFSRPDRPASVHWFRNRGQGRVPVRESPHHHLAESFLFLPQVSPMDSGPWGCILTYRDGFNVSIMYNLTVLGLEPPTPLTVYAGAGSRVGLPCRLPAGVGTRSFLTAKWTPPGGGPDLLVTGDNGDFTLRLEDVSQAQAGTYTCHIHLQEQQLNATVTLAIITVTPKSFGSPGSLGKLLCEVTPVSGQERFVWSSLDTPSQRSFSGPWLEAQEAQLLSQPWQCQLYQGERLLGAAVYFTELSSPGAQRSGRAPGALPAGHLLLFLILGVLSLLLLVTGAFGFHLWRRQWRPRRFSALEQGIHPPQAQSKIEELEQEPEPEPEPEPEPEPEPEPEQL
Protocol: (§1) Briefly the antibodies were incubated with 2×10⁵ target cells at 4° C. for 1 hour. After washing, fluorescence labeled anti-mouse IgG 2nd antibody (Life Technologies) was added and incubated at 4° C. for 1 hour. Geometric median fluorescence intensity (MFI) was detected and EC₅₀ was calculated using GraphPad Prism9.0.
(§2) MFI was detected and EC₅₀ was calculated using GraphPad Prism9.0.

[4] = target: T3, mFc tagged human LAG3 ECD recombinant protein (human, UniProt P18627 23-450); assay: competitive FACS: mFc-LAG3 ECD binding to Raji cells (MHC II)
T3 construct: extracellular domain; purchased from Biointron; not shown: mouse IgG Fc (mFc) tag
T3 sequence (looked up): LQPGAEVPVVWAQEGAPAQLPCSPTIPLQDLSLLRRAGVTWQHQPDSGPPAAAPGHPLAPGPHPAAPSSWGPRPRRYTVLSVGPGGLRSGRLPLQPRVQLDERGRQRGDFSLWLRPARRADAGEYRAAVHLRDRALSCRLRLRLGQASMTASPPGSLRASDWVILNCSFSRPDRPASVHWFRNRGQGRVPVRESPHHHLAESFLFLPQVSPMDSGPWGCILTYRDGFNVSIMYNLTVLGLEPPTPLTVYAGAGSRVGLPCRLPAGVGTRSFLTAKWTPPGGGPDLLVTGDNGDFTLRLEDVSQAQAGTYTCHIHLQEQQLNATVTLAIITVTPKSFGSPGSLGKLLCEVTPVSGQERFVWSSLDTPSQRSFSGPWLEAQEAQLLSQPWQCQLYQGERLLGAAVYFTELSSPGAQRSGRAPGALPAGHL
Protocol: (§3) Activity of the purified chimeric antibodies to block LAG3 and MHC II interaction was determined by competitive FACS assay. […] After washing, dye labeled anti-mouse Fc 2nd antibody (Sigma) was added and incubated at 37° C. for 1 hour. Fluorescence intensity was detected.

[5] = target: T4, hFc tagged human LAG3 ECD recombinant protein (human, UniProt P18627 23-450); assay: competitive ELISA format II: biotin hFc-LAG3 ECD binding to coated His-FGL1
T4 construct: range 23-450; also called biotin labelled hFc tagged human LAG3 ECD; not shown: human IgG Fc tag
T4 sequence (looked up): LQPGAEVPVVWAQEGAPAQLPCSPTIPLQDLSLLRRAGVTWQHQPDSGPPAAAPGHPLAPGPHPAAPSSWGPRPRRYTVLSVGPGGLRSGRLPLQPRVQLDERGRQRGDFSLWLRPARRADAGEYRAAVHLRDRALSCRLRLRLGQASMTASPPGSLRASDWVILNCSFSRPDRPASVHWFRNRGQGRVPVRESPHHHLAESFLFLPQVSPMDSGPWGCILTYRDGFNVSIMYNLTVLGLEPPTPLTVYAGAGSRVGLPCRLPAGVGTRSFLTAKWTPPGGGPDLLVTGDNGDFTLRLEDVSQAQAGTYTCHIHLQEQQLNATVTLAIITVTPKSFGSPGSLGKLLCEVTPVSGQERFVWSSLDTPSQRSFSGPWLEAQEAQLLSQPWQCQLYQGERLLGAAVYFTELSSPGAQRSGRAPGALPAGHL
Protocol: (§4) After washing, HRP labeled anti-His 2nd antibody (Sigma) was added and incubated at 37° C. for 1 hour. Then, 100 μl/well of TMB solution (Biotechnology) was added. After incubation for 15 minutes at room temperature, the reaction was stopped by the addition of 50 μl of 1N HCl. OD 450 nm was read. […] After washing, HRP labeled anti-SA 2nd antibody (Sigma) was added and incubated at 37° C. for 1 hour. Then, 100 μl/well of TMB solution (Biotechnology) was added. After incubation for 15 minutes at room temperature, the reaction was stopped by the addition of 50 μl of 1N HCl. OD 450 nm was read. […] The competition assay of format III is a competitive FACS assay. […] After washing, dye labeled anti-His 2nd antibody (Sigma) was added and incubated at 37° C. for 1 hour. Fluorescence intensity was detected.

[6] = target: T2, human LAG3, full length, stably …; assay: FACS on 293F cells stably expressing human LAG3; remark: listed apart in the source
Protocol: as §1, §2

[7] = target: T3, mFc tagged human LAG3 ECD recombinant …; assay: competitive FACS: mFc-LAG3 ECD binding to Raji cells (MHC II); remark: listed apart in the source
Protocol: as §3

[8] = target: T5, human LAG3 ECD recombinant protein (plate coated, tag not stated) (human, UniProt P18627 23-450); assay: competitive ELISA format I: His-FGL1 binding to coated LAG3 ECD
T5 construct: extracellular domain
T5 sequence (looked up): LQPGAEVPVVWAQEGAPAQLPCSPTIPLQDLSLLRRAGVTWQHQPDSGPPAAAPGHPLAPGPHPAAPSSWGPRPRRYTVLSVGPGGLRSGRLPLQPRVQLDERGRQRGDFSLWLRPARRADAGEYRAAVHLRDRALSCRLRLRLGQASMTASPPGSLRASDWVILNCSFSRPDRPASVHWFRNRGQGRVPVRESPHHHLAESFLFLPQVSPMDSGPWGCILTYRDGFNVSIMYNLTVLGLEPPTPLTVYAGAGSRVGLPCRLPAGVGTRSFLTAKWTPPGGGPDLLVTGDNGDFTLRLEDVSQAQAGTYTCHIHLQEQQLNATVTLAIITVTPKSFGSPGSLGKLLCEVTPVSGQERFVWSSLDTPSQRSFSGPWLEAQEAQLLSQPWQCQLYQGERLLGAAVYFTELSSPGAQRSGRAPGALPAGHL
Protocol: as §4

[9] = target: T4, hFc tagged human LAG3 ECD recombinant …; assay: competitive ELISA format II: biotin hFc-LAG3 ECD binding to coated His-FGL1; remark: listed apart in the source
Protocol: as §4

Binder | Kd [1] | koff [1] | kon [1] | Kd [2] | koff [2] | kon [2] | EC50 [3] | TOP MFI [3] | IC50 [4] | TOP blocking (%) [4] | IC50 [5] | TOP blocking (%) [5] | EC50 [6] | TOP MFI [6] | IC50 [7] | TOP blocking (%) [7] | Blocking ratio at 66.7 nM (%) [8] | IC50 [9] | TOP blocking (%) [9]
hu023.04 (antibody, human IgG4, V domains shown, humanized from 023c) VH: QVQLVQSGAEVKKPGASVKVSCKASGYTFTESPMNWVRQAPGQGFEWMGIIYTDTGEPTYAEEFKGRVTMTRDTSTSTVYMELSSLRSEDTAVYFCASDYGSILYWYFDVWGQGTLVTVSS VL: DIQMTQSPSSLSASVGDRVTITCKASQDVSTAVAWYQQKPGKAPKLLIYSASYRYTGVPSRFSGSGSGTDFTLTISSLQPEDFATYYCQQHYNAPPTFGQGTKLEIK | 0.537 nM | 0.000164 s⁻¹ | 305000 M⁻¹ s⁻¹ | 0.242 nM | 0.000402 s⁻¹ | 1.66e+06 M⁻¹ s⁻¹ | 0.4 nM | 3180 | 5.9 nM | 99.2% | 1.7 nM | 82.2% |  |  |  |  |  |  | 
027c (antibody, human IgG4, V domains shown, human IgG4 S228P / kappa chimeric antibody; also called chimeric antibody 027; not shown: human kappa light chain constant region (pcDNA3.4-hIgGk vector)) VH: EVKILQSGGGLVQPGGSLKLSCAASGIDFSRYWMSWVRRTPGKGLEWIGEINPDSSTINYAPSLKDKFIISRDNAKNTLYLQMSKVRSEDTALYYCARLGIIPTYHYGSSGYYYAMDYWGQGTSVTVSS VL: DVLMTQTPLSLPVSLGDRASISCRSSQTIVHGNGHTSLEWYLQKPGQSPQLLIYKVSNRFSGVPDRFSASGSGTDFTLTISRVEAEDLGVYYCFQVSHVPYTFGGGTKLEIK |  |  |  |  |  |  |  |  |  |  |  |  | 2 nM | 302 | 4.5 nM | 91.2% | 26.7% | 6.13 nM | 78.3%
